Experimental data published in the RNAGym collection of RNA variant scans (doi:10.7554/elife.80360).

B1: CPEB3 Ribozyme (parent)
chain: GGGGGCCACAGCAGAAGCGUUCACGUCGCGGCCCCUGUCAGAUUCUGGUGAAUCUGCGAAUUCUGCUGU

Variants of: B1
Assay: self-cleavage, relative activity (ratio to wild type); higher = more cleavage; co-transcriptional

| Variant | self-cleavage |
| --- | --- |
| A8C U43A | 0.971 |
| A8C U43C | 0.95 |
| A8C U43G | 0.938 |
| A8C U44G | 0.927 |
| A8C U46G | 0.982 |
| A8C U55C | 0.891 |
| A8C U61A | 0.913 |
| A8C U64A | 0.947 |
| A8C U67C | 1 |
| A8C U67G | 0.975 |
| A8C U69C | 1.07 |
| A8G A10C | 0.666 |
| A8G A10G | 0.122 |
| A8G A13C | 0.126 |
| A8G A13G | 0.192 |
| A8G A15G | 0.777 |
| A8G A16C | 0.0896 |
| A8G A16G | 0.458 |
| A8G A23C | 0.751 |
| A8G A51G | 0.901 |
| A8G A51U | 0.772 |
| A8G A60C | 0.143 |
| A8G C9A | 0.994 |
| A8G C27G | 0.0649 |

| Variant | self-cleavage |
| --- | --- |
| A8G C32G | 0.517 |
| A8G C32U | 0.877 |
| A8G C33G | 0.488 |
| A8G C34A | 0.734 |
| A8G C34U | 0.952 |
| A8G C35U | 0.808 |
| A8G C39U | 0.448 |
| A8G C45G | 0.801 |
| A8G C57U | 0.303 |
| A8G G19A | 0.0612 |
| A8G G31C | 0.0995 |
| A8G G37A | 0.128 |
| A8G G37U | 0.134 |
| A8G G47A | 1 |
| A8G G48C | 0.954 |
| A8G G50A | 0.868 |
| A8G G50U | 0.877 |
| A8G G58A | 0.867 |
| A8G G58U | 0.92 |
| A8G G65C | 0.424 |
| A8G G65U | 0.223 |
| A8G U20A | 0.0589 |
| A8G U21A | 0.833 |
| A8G U21G | 0.199 |

| Variant | self-cleavage |
| --- | --- |
| A8G U36C | 0.593 |
| A8G U36G | 0.135 |
| A8G U38A | 0.662 |
| A8G U38G | 0.0785 |
| A8G U43C | 0.758 |
| A8G U44A | 0.607 |
| A8G U44G | 0.651 |
| A8G U53A | 0.591 |
| A8G U53C | 0.31 |
| A8G U55A | 0.269 |
| A8G U61A | 0.379 |
| A8G U62G | 0.367 |
| A8G U64G | 0.304 |
| A8G U67A | 0.59 |
| A8G U69A | 0.928 |
| A8G U69C | 1.05 |
| A8U A10C | 1.03 |
| A8U A10G | 0.937 |
| A8U A13U | 0.805 |
| A8U A15C | 0.812 |
| A8U A23C | 0.944 |
| A8U A40G | 0.97 |
| A8U A42G | 0.943 |
| A8U A51C | 0.974 |

| Variant | self-cleavage |
| --- | --- |
| A8U A52C | 0.975 |
| A8U A59G | 1 |
| A8U C9A | 1.03 |
| A8U C12U | 1.05 |
| A8U C18U | 0.928 |
| A8U C22A | 0.154 |
| A8U C29A | 0.269 |
| A8U C33A | 0.935 |
| A8U C33U | 0.996 |
| A8U C35G | 0.435 |
| A8U C39U | 0.986 |
| A8U C45A | 1.01 |
| A8U C45G | 0.958 |
| A8U C57A | 0.299 |
| A8U C57U | 0.361 |
| A8U C63G | 0.782 |
| A8U C63U | 1.03 |
| A8U C66A | 0.857 |
| A8U C66U | 0.993 |
| A8U G11C | 0.873 |
| A8U G14C | 0.593 |
| A8U G17A | 0.388 |
| A8U G19C | 0.146 |
| A8U G19U | 0.483 |

| Variant | self-cleavage |
| --- | --- |
| A8U G25U | 0.0965 |
| A8U G28A | 0.141 |
| A8U G28U | 0.0893 |
| A8U G30U | 0.519 |
| A8U G37C | 0.169 |
| A8U G41A | 0.789 |
| A8U G48U | 1.03 |
| A8U G50U | 1.01 |
| A8U G56C | 0.761 |
| A8U G58A | 0.995 |
| A8U G65A | 0.901 |
| A8U U21A | 0.994 |
| A8U U36G | 0.163 |
| A8U U43G | 0.913 |
| A8U U44A | 0.97 |
| A8U U49A | 0.98 |
| A8U U49C | 1.02 |
| A8U U53A | 0.913 |
| A8U U53G | 0.891 |
| A8U U55A | 0.967 |
| A8U U61C | 0.808 |
| A8U U62A | 0.97 |
| A8U U62G | 0.945 |
| A8U U64C | 0.953 |

| Variant | self-cleavage |
| --- | --- |
| A8U U64G | 0.87 |
| A8U U67A | 1.03 |
| A8U U67C | 1 |
| A8U U69G | 1.06 |
| C9A | 1.03 |
| C9A A10C | 1.02 |
| C9A A10G | 1.01 |
| C9A A13C | 0.965 |
| C9A A15C | 0.931 |
| C9A A15U | 0.886 |
| C9A A16C | 0.56 |
| C9A A16G | 0.992 |
| C9A A23C | 1.01 |
| C9A A40G | 1 |
| C9A A42G | 0.997 |
| C9A A42U | 0.997 |
| C9A A52C | 1.01 |
| C9A A52G | 1.02 |
| C9A A52U | 1.03 |
| C9A A59U | 0.897 |
| C9A C12A | 0.806 |
| C9A C18G | 0.26 |
| C9A C22A | 0.251 |
| C9A C22G | 0.181 |

| Variant | self-cleavage |
| --- | --- |
| C9A C22U | 0.424 |
| C9A C24A | 0.891 |
| C9A C24U | 0.934 |
| C9A C27A | 0.798 |
| C9A C29A | 0.86 |
| C9A C29U | 0.992 |
| C9A C32A | 1 |
| C9A C32G | 0.843 |
| C9A C34G | 0.995 |
| C9A C39U | 0.973 |
| C9A C45G | 1.03 |
| C9A C63A | 0.953 |
| C9A C63G | 0.806 |
| C9A C66U | 1.02 |
| C9A G14A | 0.725 |
| C9A G14U | 0.767 |
| C9A G17C | 0.204 |
| C9A G25C | 0.228 |
| C9A G28A | 0.265 |
| C9A G31A | 1 |
| C9A G31C | 0.291 |
| C9A G31U | 0.961 |
| C9A G37U | 0.401 |
